According to publication PMC4842275:

Target: HIV-1 capsid of the wild type HIV-1GFP vector (HIV-1)

engineered human TRIM5alpha fused with CypA at position S322 (T5Cyp) (from UniProt Q9C035 1-322)
restriction of HIV-1GFP infection (GFP+ cells by FACS 48 h after infection) in Jurkat T5Cyp cells compared to H126Q cells: 10 fold
